One block for each substance: values may come before it.
What was measured:
Test in all cases: SEC; HPLC-SEC on a bioZen 1.8 µm SEC-3 column in 150 mM KPi, pH 6.8; absorbance at 280 nm and 655 nm; samples after clicking with BCN-649, in vitro phosphopantetheinylation and purification over Ni-NTA magnetic beads
[1] = molecular target: full-length mFAS mutant Gly2113AzPhe (mouse) (UniProt P19096)
[2] = molecular target: full-length mFAS mutant Gly2113AzPhe with additional ACP knock-out mutation Ser2150Ala (mouse) (UniProt P19096)
[3] = molecular target: murine fatty acid synthase type I, wild type, full-length (mouse) (UniProt P19096); conditions: remark: other sources report otherwise

full-length mFAS mutant Gly2113AzPhe with additional ACP knock-out mutation Ser2150Ala, sequence (P19096 1-2112, change not shown): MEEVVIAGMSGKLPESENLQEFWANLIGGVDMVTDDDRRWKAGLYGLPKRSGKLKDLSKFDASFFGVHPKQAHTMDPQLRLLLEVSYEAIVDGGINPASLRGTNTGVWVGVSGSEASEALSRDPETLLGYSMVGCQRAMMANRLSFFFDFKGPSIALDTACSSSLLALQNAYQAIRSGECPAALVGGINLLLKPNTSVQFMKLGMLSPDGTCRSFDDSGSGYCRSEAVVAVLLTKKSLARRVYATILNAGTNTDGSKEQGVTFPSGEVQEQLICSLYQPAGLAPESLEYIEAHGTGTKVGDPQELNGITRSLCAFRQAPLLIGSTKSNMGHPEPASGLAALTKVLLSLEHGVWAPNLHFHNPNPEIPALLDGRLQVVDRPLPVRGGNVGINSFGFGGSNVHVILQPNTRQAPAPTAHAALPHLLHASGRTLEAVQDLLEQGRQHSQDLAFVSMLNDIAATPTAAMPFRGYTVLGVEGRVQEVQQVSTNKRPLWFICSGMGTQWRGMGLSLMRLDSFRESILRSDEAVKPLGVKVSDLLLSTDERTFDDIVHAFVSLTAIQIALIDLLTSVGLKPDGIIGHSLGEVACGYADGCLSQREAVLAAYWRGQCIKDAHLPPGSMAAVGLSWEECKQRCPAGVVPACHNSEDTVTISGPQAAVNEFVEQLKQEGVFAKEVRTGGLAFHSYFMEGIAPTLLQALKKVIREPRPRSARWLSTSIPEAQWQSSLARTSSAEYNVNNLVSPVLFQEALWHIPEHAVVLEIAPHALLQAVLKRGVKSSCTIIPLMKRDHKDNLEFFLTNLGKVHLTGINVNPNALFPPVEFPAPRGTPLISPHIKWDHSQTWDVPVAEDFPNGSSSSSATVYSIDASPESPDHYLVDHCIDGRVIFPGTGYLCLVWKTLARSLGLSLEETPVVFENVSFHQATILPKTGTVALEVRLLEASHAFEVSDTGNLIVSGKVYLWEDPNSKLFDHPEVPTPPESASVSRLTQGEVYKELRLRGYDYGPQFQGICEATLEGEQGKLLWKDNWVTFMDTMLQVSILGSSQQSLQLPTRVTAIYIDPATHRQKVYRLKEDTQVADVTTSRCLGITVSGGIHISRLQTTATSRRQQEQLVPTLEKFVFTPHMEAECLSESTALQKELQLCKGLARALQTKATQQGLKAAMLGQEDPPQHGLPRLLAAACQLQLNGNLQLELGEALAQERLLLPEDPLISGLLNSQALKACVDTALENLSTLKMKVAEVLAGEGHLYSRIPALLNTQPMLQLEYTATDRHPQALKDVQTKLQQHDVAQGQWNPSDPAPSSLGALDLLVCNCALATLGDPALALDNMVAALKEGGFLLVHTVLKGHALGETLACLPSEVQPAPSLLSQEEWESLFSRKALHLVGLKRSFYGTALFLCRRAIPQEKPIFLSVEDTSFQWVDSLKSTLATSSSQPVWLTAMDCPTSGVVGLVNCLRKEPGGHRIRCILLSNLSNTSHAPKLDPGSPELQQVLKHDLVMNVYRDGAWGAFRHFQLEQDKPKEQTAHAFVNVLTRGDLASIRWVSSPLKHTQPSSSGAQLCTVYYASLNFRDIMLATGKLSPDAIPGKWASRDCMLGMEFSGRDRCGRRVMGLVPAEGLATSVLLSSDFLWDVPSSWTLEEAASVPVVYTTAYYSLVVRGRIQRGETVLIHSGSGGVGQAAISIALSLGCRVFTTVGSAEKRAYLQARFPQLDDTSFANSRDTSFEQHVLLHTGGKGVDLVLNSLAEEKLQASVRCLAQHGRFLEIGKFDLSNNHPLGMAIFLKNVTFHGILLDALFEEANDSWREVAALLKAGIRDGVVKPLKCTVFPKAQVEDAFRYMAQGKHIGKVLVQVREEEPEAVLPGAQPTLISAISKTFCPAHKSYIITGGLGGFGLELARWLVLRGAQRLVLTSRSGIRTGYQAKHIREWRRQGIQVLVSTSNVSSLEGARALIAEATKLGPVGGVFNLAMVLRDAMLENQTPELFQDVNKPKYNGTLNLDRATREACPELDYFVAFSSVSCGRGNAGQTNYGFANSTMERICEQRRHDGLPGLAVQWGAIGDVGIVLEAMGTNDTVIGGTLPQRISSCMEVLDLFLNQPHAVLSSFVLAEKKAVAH

- stoichiometry N [1]: 2
Substance: full-length mFAS mutant Gly2113AzPhe (from UniProt P19096 1-2504) (enzyme)

- stoichiometry N [2]: 2
Substance: full-length mFAS mutant Gly2113AzPhe with additional ACP knock-out mutation Ser2150Ala (from UniProt P19096 1-2504) (enzyme)

- stoichiometry N [3]: 2
Substance: murine fatty acid synthase type I, wild type, full-length, P19096 1-2504
